Patent US20010039258A1, “Active agent transport systems” (Emisphere Technologies, Inc., priority 1990, published 2001)
Bridge positions count the residues as written; N and C are the ends. Ends that are not written are not given here.

Columns and labels:
[1] = DSC of rhGh, effect of ionic strength; format: physicochemical; conditions: pH 7.5
[2] = DSC of rhGh, effect of pH; format: physicochemical
Method: (§1) Scanning calorimetry was performed using 5 mg 0.83 mM porcine insulin (MW 6,000) per mL in 50 mM phosphate buffer, pH 7.5. All thermograms were performed on a Microcal MC-2 scanning calorimeter equipped with the DA2 data acquisition system operated in the upscale mode at 1° C./min (up to 90° C.), and data points were collected at 20 second intervals. All scans were initiated at least 20 degrees below the observed transitions for the active agent. All thermograms were corrected for baseline subtraction and normalized for the concentration of macromolecule. According to the methods of the Johns Hopkins Biocalorimetry Center, See, for example, Ramsay et al. Biochemistry (1990) 29:8677-8693; Schon et al. Biochemistry (1989) 28:5019-5024 (1990) 29: 781-788.
5 mg/mL rhGh were dissolved in buffer (0.17 mM in 50 mM phosphate buffer, assuming a molecular weight of 20,000). The pH of the solution was adjusted to the desired value, and all curves were corrected by baseline subtraction.
The effect of pH on structure was assessed by DSC according to the procedure of Example 9 where individual solutions were prepared in phosphate buffer ranging in pH value from 2.0 to 6.0.

[3] = DSC of rhGh, effect of GuHCl; format: physicochemical; conditions: pH 7.5
Method: as §1
An initial scan of rhGh was performed at 10 mg/mL in the absence of GuHCl (0.33 mM assuming 20,000 molecular weight). Subsequently, the concentration of rhGh was lowered to 5 mg/mL (0.17 mM) in 50 mM phosphate buffer, pH 7.5 containing varying concentrations of GuHCl. Each subsequent thermogram was corrected by background subtraction of a 0.5 M guanidine-phosphate buffer solution. The thermograms were corrected by subtraction of a 0.5M NaCl-phosphate buffer blank. Scans were performed according to the procedure of Example 9.

[4] = In vivo delivery of rhGH in rats, sublingual, intranasal, oral; conditions: rat, no carrier, drug dose 6 mg/kg
Method: Dosing compositions were prepared by mixing the modified amino acids and recombinant human growth hormone (rhGH) as listed in Table 16 below in a phosphate buffer solution at a pH of about 7-8.
Rats were administered the dosing composition by sublingual or intranasal administration. Delivery was evaluated by using an ELISA assay for rhGH from Medix Biotech, Inc. For intracolonic administration, a sample was prepared and dosed to fasted rats at 25 mg/kg of carrier in a buffered solution containing propylene glycol (0-50%) and 1 mg/kg rhGH.
rhGH ([…]) was administered by oral gavage to a rat, and delivery was evaluated according to the procedure of Example 41A.

[5] = In vivo rhGH in rats, subcutaneous, with delivery agents; parameters: species or system Sprague-Dawley rats; conditions: rat; no delivery agent (Example 43A)
Method: The delivery agents were reconstituted with distilled water and adjusted to pH 7.2-8.0 with either aqueous hydrochloric acid or aqueous sodium hydroxide. A stock solution of rhGH was prepared by mixing rhGH, D-mannitol and glycine and dissolving this mixture in 2% glycerol/water. The stock solution was then added to the delivery agent solution. Several delivery agent to active agent ratios were studied.
Male Sprague-Dawley rats weighing 200-250 g were fasted for 24 hours and administered ketamine (44 mg/kg) and chlorpromazine (1.5 mg/kg) 15 minutes prior to dosing. The rats were administered one of the dosing solutions described above by subcutaneous injection, intranasal instillation, or sublingual instillation. Blood samples were collected serially from the tail artery for serum calcium concentration determination or serum rhGH concentrations. The dose of rhGH administered in these experiments was 0.1 mg/kg.
Serum rhGH concentrations were quantified by an rhGH enzyme immunoassay test kit.
rhGH (1 mg/kg) was administered by oral gavage to a rat, and delivery was evaluated according to the procedure of Example 43.

[6] = DSC of rhGh, effect of pH; format: physicochemical; conditions: pH 7.5 (10 mg/mL)
[7] = tested on: serum calcium; assay: In vivo salmon calcitonin in rats, subcutaneous, with delivery agents; parameters: species or system Sprague-Dawley rats; conditions: sCT 0.2 μg/kg, no delivery agent (Example 55A)
Method: The delivery agents were reconstituted with distilled water and adjusted to pH 7.2-8.0 with either aqueous hydrochloric acid or aqueous sodium hydroxide. A stock solution of sCT was prepared by dissolving sCT in citric acid (0.085N). The stock solution was then added to the delivery agent solution. Several different delivery agent to active agent ratios were studied.
Male Sprague-Dawley rats weighing 200-250 g were fasted for 24 hours and administered ketamine (44 mg/kg) and chlorpromazine (1.5 mg/kg) 15 minutes prior to dosing. The rats were administered one of the dosing solutions described above by subcutaneous injection. Blood samples were collected serially from the tail artery for serum calcium concentration.
Serum calcium concentrations were quantified by the o-cresolphthalein complexone method (Sigma) using a UV/VIS spectrophotometer (Perkin Elmer).
Salmon calcitonin was administered by oral gavage to rats, and delivery was evaluated according to the Procedure of Example 55.

For rhGh: recombinant human growth hormone, the “Tm (Cp, max)” value ([1]; 0.0 M NaCl) was 75.2 °C, the “ΔH°” value ([1]; 0.0 M NaCl) was 191.0 kcal/mol and the “Tm (Cp, max)” value ([1]; 0.5 M NaCl) was 75.8 °C. For the same substance, the “ΔH°” value ([1]; 0.5 M NaCl) was 89.7 kcal/mol, the “ΔH°” value ([1]; 1.0 M NaCl) was 50.5 kcal/mol and the “Tm (Cp, max)” value ([1]; 10.0 M NaCl) was 76.5 °C. The “Tm (Cp, max)” value ([2]; pH 2.0) was “no transition observed”, the “ΔH°” value ([2]; pH 2.0) was “no transition observed” and the “Tm (Cp, max)” value ([2]; pH 3.0) was “no transition observed”. The “ΔH°” value ([2]; pH 3.0) was “no transition observed”, the “Tm (Cp, max)” value ([2]; pH 3.5) was “no transition observed” and the “ΔH°” value ([2]; pH 3.5) was “no transition observed”. The “Tm (Cp, max)” value ([2]; pH 4.0) was “≈73.0 °C”, the “ΔH°” value ([2]; pH 4.0) was “broad transition” and the “Tm (Cp, max)” value ([2]; pH 5.0) was 75.0 °C. The “ΔH°” value ([2]; pH 5.0) was 161 kcal/mol, the “Tm (Cp, max)” value ([2]; pH 6.0) was 75.2 °C and the “ΔH°” value ([2]; pH 6.0) was 191 kcal/mol. The “DOMAIN A Tm (Cp, max)” value ([3]; 0.5 M GuHCl) was 71.5 °C, the “DOMAIN B Tm (Cp, max)” value ([3]; 0.5 M GuHCl) was “not defined,” and the “ΔH°” value ([3]; 0.5 M GuHCl) was 48 kcal/mol. For the same substance, the “DOMAIN A Tm (Cp, max)” value ([3]; 1.0 M GuHCl) was 70.9 °C, the “DOMAIN B Tm (Cp, max)” value ([3]; 1.0 M GuHCl) was “absent” and the “ΔH°” value ([3]; 1.0 M GuHCl) was 109 kcal/mol. The “DOMAIN A Tm (Cp, max)” value ([3]; 1.5 M GuHCl) was 69.7 °C, the “DOMAIN B Tm (Cp, max)” value ([3]; 1.5 M GuHCl) was “absent” and the “ΔH°” value ([3]; 1.5 M GuHCl) was 12 kcal/mol. The “DOMAIN A Tm (Cp, max)” value ([3]; 2.0 M GuHCl) was 70.0 °C, the “DOMAIN B Tm (Cp, max)” value ([3]; 2.0 M GuHCl) was “absent” and the “ΔH°” value ([3]; 2.0 M GuHCl) was 58 kcal/mol. For the same substance, the “DOMAIN A Tm (Cp, max)” value ([3]; 2.5 M GuHCl) was 70.7 °C, the “DOMAIN B Tm (Cp, max)” value ([3]; 2.5 M GuHCl) was “absent” and the “ΔH°” value ([3]; 2.5 M GuHCl) was 99 kcal/mol. The “DOMAIN A Tm (Cp, max)” value ([3]; no GuHCl, rhGh 10 mg/mL) was 72.6 °C, the “DOMAIN B Tm (Cp, max)” value ([3]; no GuHCl, rhGh 10 mg/mL) was 74.3 °C and the “ΔH°” value ([3]; no GuHCl, rhGh 10 mg/mL) was 632 kcal/mol. For the same substance, the “Mean Peak Serum Levels of rhGH” value [4] was <10 ± 10 ng/mL, the “Peak Serum [rhGH]” value [5] was 4 ± 2 ng/mL and the “Tm (Cp, max), transition a)” value [6] was “a) 73 °C”. For the same substance, the “Tm (Cp, max), transition b)” value [6] was “b) 75 °C” and the “ΔH°, (a) + (b)” value [6] was “(a) + (b) = 632 kcal/mol”.
With “sCT: Salmon Calcitonin (CSNLSTCVLGKLSQELHKLQTYPRTNTGSGTP-NH2; disulfide 1-7; ends not checked)” the “Percent Decrease in Serum Calcium” value [7] was 17 ± 2%.
